Results reported in US20180037651A1 (published 2018).

T1: human GPRC5D (UniProt Q9NZD1 1-345)
T1 chain: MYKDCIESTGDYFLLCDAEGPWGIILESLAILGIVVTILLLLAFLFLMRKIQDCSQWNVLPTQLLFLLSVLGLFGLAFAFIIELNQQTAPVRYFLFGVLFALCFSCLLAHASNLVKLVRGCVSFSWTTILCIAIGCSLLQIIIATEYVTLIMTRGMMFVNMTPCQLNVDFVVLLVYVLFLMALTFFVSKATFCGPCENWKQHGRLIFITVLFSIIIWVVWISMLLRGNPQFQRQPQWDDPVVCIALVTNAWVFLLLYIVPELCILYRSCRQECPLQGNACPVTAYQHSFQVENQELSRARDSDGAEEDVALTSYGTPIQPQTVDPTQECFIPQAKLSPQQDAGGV


Target: T1, human GPRC5D
Test: FACS cell binding; MM.1R cells

EC50	Binder
0.1 nM	GC5B599 (antibody, V domains shown) VH: EVQLVQSGAEVKKPGESLKISCKGSGYSFTSYFIGWVRQMPGKGLEWMGIIYPGKSDTRYSPSFQGQVTISADKSISTAYLQWSSLKASDTAMYYCARVYSFGGRHKALFDYWGQGTLVTVSS VL: EIVLTQSPATLSLSPGERATLSCRASQSVSSYLAWYQQKPGQAPRLLIYDASNRATGIPARFSGSGSGTDFTLTISSLEPEDFAVYYCQQRSNWPLTFGQGTKVEIK
1.67 nM	GC5B603 (antibody, V domains shown) VH: not shown VL: EIVLTQSPATLSLSPGERATLSCRASQSVRKSLAWYQQKPGQAPRLLIYTASNRATGIPARFSGSGSGTDFTLTISSLEPEDFAVYYCQQYFRAPITFGQGTKVEIKK
